The source of these data is patent US20080058263A1 (published 2008).

The labels stand for the following.
T1: VEGFR-3-Fc (UniProt P35916 25-328)
T1 construct: domain: first three Ig domains; conditioned supernatant of 293T cells; also called VEGFR-3-Fc fusion protein; not shown: Fc fragment of the pIg vector
T1 sequence (looked up): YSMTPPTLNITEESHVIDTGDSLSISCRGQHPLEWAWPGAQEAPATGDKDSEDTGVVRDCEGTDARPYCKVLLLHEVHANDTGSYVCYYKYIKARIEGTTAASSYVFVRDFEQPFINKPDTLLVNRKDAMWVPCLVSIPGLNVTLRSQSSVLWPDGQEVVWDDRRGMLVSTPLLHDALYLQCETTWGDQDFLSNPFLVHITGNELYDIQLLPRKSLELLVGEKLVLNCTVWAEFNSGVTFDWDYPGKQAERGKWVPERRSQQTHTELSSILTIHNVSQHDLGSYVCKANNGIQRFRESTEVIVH

B1: 72-9 (ligand)
chain: GQNHHEVVKSIDNEWRKTQCMPREVCIDVGKEFGVATNTFFKPPCVSVYRCGGCCNDEGLECVPTEESNITMQIMRITVPLSQGPKPVTISFLQHNKCECRPKKD
B2: 83-1 (ligand)
chain: AHYNTEILKFMDVYQRSYCHPIETLVDIFQEYPDEIEYIFKPPCVSVYRCGGCCNDEGLECVPTEESNITMQIMRIKPHQGQHIGEMSFLQHNKCECRPKKD
B3: 83-5 (ligand)
chain: B2 chain with L90A, Q91N, N93T, K94S, E96R, R98M, P99S, K101L
B4: 63-3 (ligand)
chain: GQNHHEVVKFMDVYQRSYCHPREVCIDVGKEYPDEIEYIFKPPCVSVYRCGGCCNSEGLQCVPTEESNITMQIMRIKPHQGQHIGEMSFLQHNKCECRPKKD
B5: 81-1 (ligand)
chain: B2 chain with P43S, S46P, V47L, Y48M
B6: 83-3 (ligand)
chain: B2 chain with D56S, E60Q
B7: 81-3 (ligand)
chain: B2 chain with P43S, S46P, V47L, Y48M, D56S, E60Q
B8: 41-7 (ligand)
chain: AHYNTEILKFMDVYQRSYCHPREVCIDVGKEYPDEIEYIFKPSCVPLMRCGGCCNSEGLQCVPTEESNITMQIMRIKPHQGQHIGEMSFANHTSCRCMSKLD
B9: 44-5 (ligand)
chain: B8 chain with Y32F, P33G, D34V, E35A, I36T, E37N, Y38T, I39F, S56D, Q60E
B10: 83-7 (ligand)
chain: B2 chain with D56S, E60Q, L90A, Q91N, N93T, K94S, E96R, R98M, P99S, K101L
B11: 61-5 (ligand)
chain: B8 chain with A1G, H2Q, Y3N, N4H, T5H, I7V, L8V, S56D, Q60E
B12: 44-7 (ligand)
chain: B8 chain with Y32F, P33G, D34V, E35A, I36T, E37N, Y38T, I39F
B13: 81-7 (ligand)
chain: B8 chain with R22I, V24T, C25L, I26V, V28I, G29F, K30Q
B14: 81-5 (ligand)
chain: B8 chain with R22I, V24T, C25L, I26V, V28I, G29F, K30Q, S56D, Q60E
B15: 42-7 (ligand)
chain: AHYNTEILKFMDVYQRSYCHPREVCIDVGKEFGVATNTFFKPPCVSVYRCGGCCNSEGLQCVPTEESNITMQIMRIKPHQGQHIGEMSFANHTSCRCMSKLD
B16: 43-5 (ligand)
chain: B8 chain with S43P, P46S, L47V, M48Y, S56D, Q60E
B17: 61-7 (ligand)
chain: B8 chain with A1G, H2Q, Y3N, N4H, T5H, I7V, L8V
B18: 63-7 (ligand)
chain: B4 chain with L90A, Q91N, N93T, K94S, E96R, R98M, P99S, K101L
B19: 83-15 (ligand)
chain: AHYNTEILKFMDVYQRSYCHPIETLVDIFQEYPDEIEYIFKPPCVSVYRCGGCCNSEGLQCVPTEESNITMQIMRITVPLSQGPKPVTISFANHTSCRCMSKLDL
notes: clone entry
B20: 83-9 (ligand)
chain: AHYNTEILKFMDVYQRSYCHPIETLVDIFQEYPDEIEYIFKPPCVSVYRCGGCCNDEGLECVPTEESNITMQIMRITVPLSQGPKPVTISFLQHNKCECRPKKD
B21: 83-13 (ligand)
chain: B20 chain with L92A, Q93N, N95T, K96S, E98R, R100M, P101S, K103L
B22: 83-11 (ligand)
chain: B20 chain with D56S, E60Q

Residue numbers refer to the chain shown, from its start.

The target of one test is T2, VEGFR-1-Fc (UniProt P17948 27-338).
T2 construct: domain: first three Ig domains; expressed in Drosophila S2 cells, purified on Protein A sepharose; also called VEGFR-1-Fc fusion protein; not shown: Fc fragment from the Signal-pIgPlus vector
T2 sequence (P17948 27-338): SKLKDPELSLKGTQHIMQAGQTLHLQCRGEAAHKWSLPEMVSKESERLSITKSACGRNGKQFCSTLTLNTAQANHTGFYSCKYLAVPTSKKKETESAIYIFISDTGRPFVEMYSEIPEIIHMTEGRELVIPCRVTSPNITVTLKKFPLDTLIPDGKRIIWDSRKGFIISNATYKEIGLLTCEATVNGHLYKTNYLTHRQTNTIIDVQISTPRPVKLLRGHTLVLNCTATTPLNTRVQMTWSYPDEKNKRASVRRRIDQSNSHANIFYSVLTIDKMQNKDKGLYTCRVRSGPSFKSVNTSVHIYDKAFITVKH
Briefly: receptor-Fc IP. The procedure: (§1) The binding assay procedure was identical to the immunoprecipitation using pentahistidine antibody described in Example 2, apart from the composition of the immunoprecipitation (IP) mixes. The IP mixes used for the receptor binding analysis were as follows: For VEGFR-1 binding assays, the IP mix was phosphate buffered saline (PBS) containing 1.5% BSA, 0.06% Tween 20, 3 μg/ml heparin and 400 ng/ml VEGFR-1-Fc fusion protein (100 μl of this IP mix was added to 200 μl of sample supernatant); for VEGFR-2 binding assays, the IP mix was 82% conditioned cell supernatant from 293T cells transiently expressing VEGFR-2-Fc fusion protein in mixture with 18% of a PBS solution that contained 5% BSA, 0.2% Tween 20, and 10 μg/ml heparin (250 μl of IP mix was added to 200 μl of sample supernatant); and for VEGFR-3 binding assays, the IP mix was 82% conditioned cell supernatant from 293T cells transiently expressing VEGFR-3-Fc fusion protein, 18% of PBS containing 5% BSA, 0.2% Tween 20, and 10 μg/ml heparin (250 μl of IP mix was added to 200 μl of sample supernatant).
Turning to B1, the binding result is on record as “no binding”.

With B2, the binding result was “binds”.

On to B3, for which the binding result is “binds”.

B4: the binding result is “no binding”.

For B5, the binding result was “binds”.

With B6, the binding result is reported as “binds”.

Regarding B7, the binding result is on record as “binds”.

Consider B8, for which the binding result is “no binding”.

Take B9: the binding result is “no binding”.

Take B10: the binding result is listed as “binds”.

In the case of B11, the binding result is “no binding”.

For B12, the binding result is “no binding”.

On to B13, for which the binding result is “binds”.

For the molecule B14, the binding result is “binds”.

For B15, the binding result is on record as “no binding”.

B16: the binding result is given as “no binding”.

For the molecule B17, the binding result is on record as “no binding”.

For the molecule B18, the binding result was “no binding”.

For B19, the binding result is recorded as “binds”.

As for B20, the binding result was “binds”.

As for B21, the binding result is recorded as “binds”.

On to B22, for which the binding result is on record as “binds”.

The target of another test is T3, VEGFR-2-Fc (UniProt P35968 20-322).
T3 construct: domain: first 3 Ig domains; conditioned supernatant of 293T cells; also called VEGFR-2-Fc fusion protein; not shown: Fc fragment of the pIg vector
T3 sequence (P35968 20-322): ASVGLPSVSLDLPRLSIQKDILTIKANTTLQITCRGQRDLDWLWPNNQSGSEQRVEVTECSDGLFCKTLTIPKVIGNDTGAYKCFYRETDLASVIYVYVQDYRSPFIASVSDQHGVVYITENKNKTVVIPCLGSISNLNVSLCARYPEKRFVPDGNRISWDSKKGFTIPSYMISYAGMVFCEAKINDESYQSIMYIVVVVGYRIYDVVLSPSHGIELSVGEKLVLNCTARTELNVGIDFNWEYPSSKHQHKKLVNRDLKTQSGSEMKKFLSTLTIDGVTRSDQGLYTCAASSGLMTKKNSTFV
Kind of test: receptor-Fc IP. The procedure:
as §1
For B1, the binding result is on record as “no binding”.

Regarding B2, the binding result is “binds”.

With B3, the binding result is recorded as “binds”.

In the case of B4, the binding result is given as “binds”.

As for B5, the binding result is on record as “binds”.

Consider B6, for which the binding result is given as “binds”.

For the molecule B7, the binding result is “binds”.

Take B8: the binding result was “no binding”.

Consider B9, for which the binding result was “no binding”.

B10: the binding result is “binds”.

For B11, the binding result is “no binding”.

As to B12, the binding result is reported as “no binding”.

In the case of B13, the binding result is reported as “binds”.

For B14, the binding result is recorded as “binds”.

For B15, the binding result was “no binding”.

In the case of B16, the binding result is reported as “no binding”.

As for B17, the binding result is on record as “no binding”.

Turning to B18, the binding result was “binds”.

Turning to B19, the binding result is given as “binds”.

On to B20, for which the binding result is recorded as “no binding”.

As to B21, the binding result was “no binding”.

For the molecule B22, the binding result was “binds”.

In the next test the target is T1, VEGFR-3-Fc. Kind of test: receptor-Fc IP. The procedure: as §1
Consider B1, for which the binding result is given as “no binding”.

B2: the binding result was “no binding”.

As to B3, the binding result was “no binding”.

In the case of B4, the binding result is given as “no binding”.

B5: the binding result is recorded as “no binding”.

Regarding B6, the binding result is on record as “no binding”.

B7: the binding result is “no binding”.

With B8, the binding result is reported as “no binding”.

Consider B9, for which the binding result is listed as “no binding”.

As for B10, the binding result was “no binding”.

For the molecule B11, the binding result is “no binding”.

Regarding B12, the binding result is recorded as “no binding”.

As to B13, the binding result is on record as “no binding”.

Take B14: the binding result is “no binding”.

As to B15, the binding result was “no binding”.

B16: the binding result is “no binding”.

Turning to B17, the binding result is “no binding”.

For the molecule B18, the binding result is “binds”.

Turning to B19, the binding result was “no binding”.

Consider B20, for which the binding result is listed as “no binding”.

In the case of B21, the binding result is on record as “no binding”.

For the molecule B22, the binding result is given as “no binding”.
